Results from US20190160102A1.

Biological target: CD33 on MV-4-11 human AML cells (human) (UniProt P20138)
Test: flow cytometry, cell-cell binding: HA-positive erythroid cells within the CFSE-positive MV4-11 population (negative control)

UniProt P20138, sequence (P20138 18-364 limits assumed): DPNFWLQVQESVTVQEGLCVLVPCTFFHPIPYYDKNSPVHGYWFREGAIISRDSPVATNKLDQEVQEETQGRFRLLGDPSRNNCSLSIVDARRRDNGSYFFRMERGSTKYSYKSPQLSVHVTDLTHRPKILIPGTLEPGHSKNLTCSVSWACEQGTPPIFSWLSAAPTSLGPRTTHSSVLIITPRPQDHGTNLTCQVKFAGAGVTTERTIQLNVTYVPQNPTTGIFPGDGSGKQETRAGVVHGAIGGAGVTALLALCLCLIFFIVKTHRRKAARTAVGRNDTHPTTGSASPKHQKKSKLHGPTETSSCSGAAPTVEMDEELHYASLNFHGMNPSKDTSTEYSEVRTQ

HA-GPA (HA tag-Glycophorin A) expressed on erythroid cells, negative control
percent of erythroid cells positive for binding to MV4-11: 10.7%
